The target of assay [1] is RNA polymerase II holoenzyme (yeast).
For assay [2], the target named is mammalian RNA polymerase II holoenzyme (calf thymus).
For assay [3], the target named is RNA polymerase II (calf thymus) (bovine (calf thymus)). Put plainly: cofractionation during purification from calf thymus, Western blot. Background: A western blot detects proteins with antibodies after separation by electrophoresis.

With GAL4-VP16 (from UniProt P04386), the in vitro transcription from a template with a GAL4 site, reconstituted with holoenzyme, factor a and TBP in assay [1] is 5 fold. In assay [2], this substance returned an in vitro transcription from the adenovirus major late promoter with 3 Gal4 binding sites, with coactivators HMG-2 or PC4 of 5 fold.

Regarding bovine SRB7 (from UniProt Q2TBU8), in assay [3], the percent of the RNA polymerase II associated with SRB7 is over 20%.

For the origin of these results see patent US5919666.
